In the supplement of paper PMC12042874:
± gives the uncertainty stated by the source.

Experiment: amyloid nucleation score (Sup35N fusion, yeast selection) (log enrichment); library NNK2; higher = more nucleation; inactive = no reads after selection
How it was run: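 The nucleation score is a DiMSum log enrichment of output over input reads, centred on the mode score of non-aggregating sequences. Sequences under 100 input reads were excluded, and reads came from Illumina sequencing of plasmid inserts. Psi-negative yeast expressing Sup35N fused to peptides of 20 random codons were induced with 100 μM copper sulfate for 24 hours and grown 7 days at 30°C on medium lacking adenine and uracil. Random libraries had three technical output replicates.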

| Substance | amyloid nucleation score |
| --- | --- |
| IRKGSHGSKMIEPVAMRSAC | 4.88 ± 0.083 |
| IRLAYASRNWCSSFGCGRMI | -0.571 ± 0.55 |
| IRLVMWCYHQNDCVVFSSLH | 1.94 ± 0.13 |
| IRLYKGVTWIFLSGSYLLRD | -0.891 ± 1.1 |
| IRMDGYEIRFSHSLYYLSH | 2.45 ± 0.081 |
| IRQIIESWQFLYISVYAGLV | 0.186 ± 0.51 |
| IRQPSVKQPWTVAKTFH | 0.052 ± 0.5 |
| IRSGIIPVTVGPYHGALYMV | 0.662 ± 0.74 |
| IRSLFLVDYNRMIGMPKGMY | 1.55 ± 0.2 |
| IRSPDAVNSNCATPRMRVY | 0.499 ± 0.36 |
| ISACFKMGNRGYVICAMSRV | -0.306 ± 0.45 |
| ISFLSNR | 1.58 ± 0.27 |
| ISGLETYLRSYWICIWSMWA | 3.02 ± 0.15 |
| ISLAINIAPLLLCTESTEWG | -0.133 ± 0.65 |
| ISLHDRWIADPFVTACGKRY | 0.386 ± 0.19 |
| ISLHILCCRSMF | 8.618 ± 0.079 |
| ISLIFCNSTRIYKFLLMFSW | inactive |
| ISNVNLTE | -0.763 ± 0.4 |
| ISPTKSNLYMADVEFREPGT | -0.883 ± 0.49 |
| ISRRHGFIILLGNDIRRVDY | 0.554 ± 0.81 |
| ISRVSGGQTLPSGLVMG | -0.326 ± 0.45 |
| ISSMSTLFCLFRGCVGGEYI | -2.18 ± 0.64 |
| ISVGRSYSV | 0.694 ± 0.24 |
| ISVKFNEEACKFYDLCN | -0.294 ± 1 |
| ISVYLSRSIFI | -0.326 ± 1 |

| Substance | amyloid nucleation score |
| --- | --- |
| ISYHSVWDKLFFYVVDFYTS | -0.591 ± 1 |
| ITCDRYITDVIDNEA | inactive |
| ITCVVLPLSRWDVHFKCSCH | 0.096 ± 0.31 |
| ITDVFSDAACNRWQINYTQA | -0.832 ± 0.33 |
| ITFAYVSLTLHRINEMGYQL | 4.65 ± 0.049 |
| ITHQRSSACIVGFILRRRCN | -0.369 ± 0.54 |
| ITILCLNVSMVYEVGQ | 7.778 ± 0.042 |
| ITIPVNLPLHFLYSGQYHVA | -0.307 ± 0.74 |
| ITIRCGSKDSFMNIGLGKMG | 4.09 ± 0.11 |
| ITLRRLTVITENPLGWNHIT | 0.499 ± 0.36 |
| ITNAYGLIPTNFLCYAFCVI | 7.958 ± 0.038 |
| ITSSRDDVSYTVGPKDMFES | 1.17 ± 0.37 |
| IVAFARVITLMRLLADGSTV | 0.608 ± 0.54 |
| IVAGVSSGQGIDQDSIVNKR | 0.102 ± 1.1 |
| IVCIWNTDVLIGKWTHLSWS | 0.883 ± 0.27 |
| IVFYMSS | 1.53 ± 0.095 |
| IVGATYHLSWLPGYTGIYRG | 1.25 ± 0.47 |
| IVGDVHSLMILRVKSAFKFT | 2.81 ± 0.16 |
| IVGELVMTFKSVMAARTPFH | 4.19 ± 0.064 |
| IVGNGRMCLRELSRFCFVRC | 1.04 ± 0.28 |
| IVGVTYFCGSNRIIMMNGVL | 5.956 ± 0.052 |
| IVICSVFSIMTRLFRSVNGR | 8.429 ± 0.062 |
| IVLTLDLSRRVGMRNCVLLG | -0.063 ± 0.54 |
| IVLYVHTTLLAGS | 4.6 ± 0.091 |
| IVNMMIAANLACAMWSNCKQ | 9.266 ± 0.044 |

| Substance | amyloid nucleation score |
| --- | --- |
| IVQKFCVASCGLEHYVF | 6.07 ± 0.073 |
| IVRVSMGYGIIPLICSKTEG | 0.859 ± 0.74 |
| IVSAMQLEHESQCKFGMNWV | 0.082 ± 0.42 |
| IVSEIFSG | -0.369 ± 1.1 |
| IVSETKITIVC | -0.275 ± 0.48 |
| IVWGC | 0.493 ± 0.34 |
| IWCSTGTFWLGGRLITLWRW | 1.02 ± 0.28 |
| IWLDSHSSAWISWTIMI | -0.585 ± 0.41 |
| IWSYLRSSASWPMNASNTSA | 0.905 ± 0.34 |
| IWYCRK | -1.11 ± 0.44 |
| IWYLLFMVDLVKCHTMKTNR | 0.686 ± 0.12 |
| IYDLSCAKARLYVASHSLTL | 0.418 ± 0.31 |
| IYDNMVDKFVSKGRCAVSPD | -0.066 ± 0.55 |
| IYFPP | -0.689 ± 0.4 |
| IYKSRRVRHVLDVVL | -0.241 ± 0.56 |
| IYLFFSCFFAILTNLVRPFA | 3.83 ± 0.081 |
| IYLSLATCSGRRRSYSKPSR | 0.645 ± 0.47 |
| IYMDLLQNQSIR | -1.27 ± 1.1 |
| IYSFSASNW | 0.048 ± 0.79 |
| IYSGETYKTWLFHGINV | -1.4 ± 0.62 |
| IYSHESASWWMRRARSS | 1.55 ± 0.25 |
| IYTTYKRTFRS | -0.553 ± 1.1 |
| IYWSLMDWLEV | 1.22 ± 0.44 |
| KAIDLRVPSMYYRPWVV | -0.58 ± 0.76 |
| KASLGLFYTWVQLSLHISCG | -0.488 ± 1 |

| Substance | amyloid nucleation score |
| --- | --- |
| KAVSLPLVGGLC | -0.684 ± 0.34 |
| KCIYDFHHRKSSVRDSLSFH | -1.6 ± 0.75 |
| KDAPEECNYVQFKA | 0.273 ± 0.61 |
| KDHSMSELYGGICVRCYKLI | -0.378 ± 1 |
| KDLRWVLRWC | 0.912 ± 0.26 |
| KDNLDQYFTERRGWWLCEVV | -0.043 ± 0.5 |
| KDVCY | 1.31 ± 0.23 |
| KEMARTSSSRCDITLQWPAS | 0.562 ± 0.44 |
| KENDVNLD | 1.5 ± 0.44 |
| KESKLYLFLCFL | 7.832 ± 0.048 |
| KESLAFTSVGVPYVWGLYGE | 0.035 ± 0.32 |
| KFIEHWYVFGYIFLRFYKFQ | -0.623 ± 1 |
| KFLIWRNFLYSVIMAVAW | inactive |
| KFLKARFGYQST | 1.3 ± 0.13 |
| KFNFS | -0.908 ± 0.44 |
| KFSASKSDISLSSYVVIMFM | 6.186 ± 0.036 |
| KFSVSLICYVTASRYSNYRE | 0.362 ± 0.31 |
| KFVYSGGLFTMLRSC | -0.414 ± 0.61 |
| KGALCLSV | -0.148 ± 0.39 |
| KGCVVFFRFSCNCSMICAWV | -0.668 ± 0.48 |
| KGFAKILLGTSCLMSV | -0.848 ± 0.62 |
| KGGQK | -0.493 ± 0.34 |
| KGLAREVRCSQYTTVIFVDR | 5.273 ± 0.043 |
| KGMLGAASHSQIKFVCVFSW | -0.493 ± 0.32 |
| KGNEY | -0.757 ± 0.64 |

| Substance | amyloid nucleation score |
| --- | --- |
| KGPDITEHTITRGPEGNSRY | -0.17 ± 0.65 |
| KGVLSGTWGGIRRIMTHVHD | 0.004 ± 0.36 |
| KHCIIRFIKLGLGKKLKQPV | -1.02 ± 0.36 |
| KHFRREW | 1.35 ± 0.41 |
| KHIDVRSNVWTRPHSKWLWS | 0.403 ± 0.2 |
| KHIKWKDCSG | -0.091 ± 0.65 |
| KHILGQTWHSHCWFHTFEGV | 2.26 ± 0.22 |
| KIERC | -0.077 ± 0.63 |
| KIFFGNNRF | 3.4 ± 0.13 |
| KIINNSANGNIYVVNRVLTL | 8.174 ± 0.046 |
| KILGWT | 0.836 ± 0.21 |
| KINMLCFSWGSCVGGCRKVC | 7.063 ± 0.055 |
| KISVWGYRFLDRH | 0.072 ± 0.21 |
| KIVCDPGCIFMPFLCVCLLW | 6.07 ± 0.082 |
| KKAVSACPLEYSVVINISGG | 7.985 ± 0.026 |
| KLAYCYSSYSHHD | 0.316 ± 0.65 |
| KLDWSNRLCSLNFECSCQLL | 3.78 ± 0.094 |
| KLFSYPIWWSRYCRMGRHRC | 0.374 ± 0.28 |
| KLIYSSYVGSFLMELRWVCD | 1.74 ± 0.17 |
| KLKRHL | -0.3 ± 0.24 |
| KLQRTGLYCYLY | -0.912 ± 0.42 |
| KLSGC | 0.265 ± 1.1 |
| KLSYFAFFRSVDGLR | 0.508 ± 0.53 |
| KLYSQTVSANLGVGWSSS | 2.12 ± 0.15 |
| KMFVILIIHTLLGAITAVCG | 0.186 ± 0.76 |

| Substance | amyloid nucleation score |
| --- | --- |
| KMMTSSFRMDGVNSTLIWLI | -0.08 ± 1 |
| KMRDGFISLVKCEYVGGFGC | -0.856 ± 0.76 |
| KMTRLLFYWSFGCGLIHLVC | -0.464 ± 1.1 |
| KMWIRLLRSEIPKCVGLTVS | 0.66 ± 0.23 |
| KNFQEHYVFLRARRLKLLSY | -0.095 ± 0.8 |
| KNGQYDGTGDNSLLGPDGFI | 3.44 ± 0.075 |
| KNILGGDSFWFLLYGYHLFI | inactive |
| KNINWILNAGSMLVSFYRPW | 7.328 ± 0.065 |
| KNIPFRMYWS | 2.6 ± 0.075 |
| KNKSFNMACPVLVYGGFLIR | inactive |
| KNLRWCQGFSRGIECRSLMV | -0.639 ± 0.55 |
| KPCSGIRVCIDLCYPP | 0.383 ± 0.74 |
| KPHGGGSRLGCRGKWLTILL | 1.29 ± 0.32 |
| KPIIGGVSTERSLVIAGVHL | 0.011 ± 0.79 |
| KPWFVVDRKNFRSNSAPWLG | 0.073 ± 0.29 |
| KQHVRMYWIAALAPMSGRGW | 4.448 ± 0.042 |
| KQIVFSANFDHRGGLVVLRW | 3.08 ± 0.073 |
| KQLRSSVSSSYYHGNTVCAE | 0.794 ± 0.39 |
| KQMFRQFLCGNVYNWRYMRA | 0.298 ± 0.56 |
| KQPLYCHDWFHLCGSDSTSF | 2.75 ± 0.16 |
| KRGMRRKGDFTERKVETLVG | 2.39 ± 0.11 |
| KRILS | -0.13 ± 0.34 |
| KRLCYVSYWIYSYSRDGELK | -1.23 ± 1.1 |
| KRLTPS | 0.155 ± 1.1 |
| KRNDCLFGRVALCGMFRLSA | 0.198 ± 0.5 |

| Substance | amyloid nucleation score |
| --- | --- |
| KRNVLLLYYSCSAICSRYVV | -0.22 ± 0.63 |
| KRRKSSTTVSKVGTGLEWMG | 0.874 ± 0.15 |
| KRRSNSTILGPINSPRVAEG | -0.258 ± 0.42 |
| KRSLIINGAATT | 1.61 ± 0.26 |
| KRSVVKNLG | 0.157 ± 0.29 |
| KSAYIGASNHAEIRHQSLSS | 0.253 ± 0.24 |
| KSETAVRVNGYGAKIQE | -0.224 ± 0.79 |
| KSFIGWLYMDTEYHWMYQPW | 0.27 ± 0.28 |
| KSRLGCTWSGAHQSIRPLRR | 1.22 ± 0.41 |
| KSSDGPKAQV | 1.13 ± 0.16 |
| KSVWLKVGCQPPIRFEFCEM | 0.037 ± 0.49 |
| KTFTWHIVRLYYKYPPMPKV | inactive |
| KTGESMVNPIARMWLR | 1.51 ± 0.17 |
| KTGYINCSIMDYMV | inactive |
| KTHIREVCEGVTIIHKWTWV | -0.508 ± 0.63 |
| KTRYALPVDQCYMKNRNMLV | 0.295 ± 0.51 |
| KVESVKHRQNKGFYCWLVRN | -1.25 ± 0.75 |
| KVGDQLQLRTSATV | 0.459 ± 0.22 |
| KVMGYGYA | -1.02 ± 0.55 |
| KVRDCDIMAPNIMVRSLNRS | 1.73 ± 0.16 |
| KVRFHSL | 2.72 ± 0.11 |
| KVRKYSEFSLQSQCDPLGRG | 0.455 ± 0.5 |
